# Reference: article PMC7851853
# Assays:
# [1] = target: actin filaments grown from rabbit skeletal muscle actin (unlabeled ADP-F-actin) (rabbit) (UniProt P68135); assay: single-molecule TIRF microscopy
# [2] = target: actin filaments grown from rabbit skeletal muscle actin (unlabeled ADP-F-actin) (rabbit) (UniProt P68135); assay: TIRF microscopy with microfluidics
substance,measurement,setting,value
mNeonGreen–Tpm1.8 (tropomyosin isoform Tpm1.8 fused at its N-terminus to an alanine–serine extension and to mNeonGreen) (natural protein),Kd of an isolated Tpm1.8 molecule on the actin filament (RI/BI),[1],500 µM
same,"RI, rate of release of an isolated Tpm from the actin filament (length)",[1],> 4.13e-08 m⋅s^-1
same,"RI, rate of release of an isolated Tpm from the actin filament (molecules)",[1],> 1.25 s⁻¹
same,half-life of the complex of an isolated Tpm1.8 molecule and the actin filament,[1],< 0.6 s
same,"BB, rate constant of binding to the domain edge at the barbed end (length)",[2],1.19 m⋅M^-1⋅s^-1
same,"BBP, combined binding rate constant at both domain edges (length)",[2],1.83 m⋅M^-1⋅s^-1
same,"BBP, combined binding rate constant at both domain edges (molecules)",[2],5.6e+07 M^-1⋅s^-1
same,"BP, rate constant of binding to the domain edge at the pointed end (length)",[2],0.64 m⋅M^-1⋅s^-1
same,"RB, rate of release from the domain edge at the barbed end (length)",[2],1.98e-09 m⋅s^-1
same,"RB, rate of release from the domain edge at the barbed end (molecules)",[2],0.061 s⁻¹
same,"RBP, combined release rate at both domain edges (length)",[2],3.05e-09 m⋅s^-1
same,"RBP, combined release rate at both domain edges (molecules)",[2],0.094 s⁻¹
same,"RP, rate of release from the domain edge at the pointed end (length)",[2],1.07e-09 m⋅s^-1
same,"RP, rate of release from the domain edge at the pointed end (molecules)",[2],0.033 s⁻¹
same,critical concentration for elongation (affinity at the domain edge),[2],1.65 nM
same,half-life of a molecule bound at the domain edge at the barbed end,[2],11 s
same,half-life of a molecule bound at the domain edge at the pointed end,[2],21 s
